# According to patent US20130236467A1 (published 2013):
# Substitutions are numbered along the chain they refer to.
# B1: BPC 1856, anti-HGF S260116C12VL1 Chimera (antibody, V domains shown)
# VH: QIQLRQSGAGLMKPGASVKLSCKATGYTFTGYWIEWVKQRPGHDLEWIGEILPGSGTTNYNEKFKGKATFTADTSSNTAYMQLSSLTTEDSAIYYCARGGYYYGSSYDSWGQGTLVTVSS
# VL: DIVLTQSPASLAVSLGQRATISCRASESVSIHGTHLMHWYQQKPGQPPKLLIYAASNLESGVPARFSGSGSETDFTLNIHPVEEEDAATYFCQQSIEDPYTFGGGTKLEIKR
# notes: also called chimeric mAb BPC1856
# B2: DT02-K-044-077 in Pascolizumab-(GSTVAAPS)3-T mAb-dAb format (bispecific antibody, part only; not given: Pascolizumab chains and linker, not shown: another chain or arm of the molecule; small tags and cut ends)
# dAb: DIQMTQSPSSLSASVGDRVTITCRASQWIGPELAWYQQKPGKAPKLLIYHGSILQSGVPSRFSGSGSGTDFTLTISSLQPEDFATYYCQQYMYYPHTFGQGTKVEIKR
# B3: DT02-K-044-092 in Pascolizumab-(GSTVAAPS)3-T mAb-dAb format (bispecific antibody, part only; not given: pascolizumab chains and linker, not shown: another chain or arm of the molecule; large carriers; small tags and cut ends)
# dAb: B2 dAb with A34T
# B4: DT02-K-044-093 in Pascolizumab-(GSTVAAPS)3-T mAb-dAb format (bispecific antibody, part only; not given: Pascolizumab chains and linker, not shown: another chain or arm of the molecule; large carriers; small tags and cut ends)
# dAb: B2 dAb with A34V
# B5: DT02-K-044-095 in Pascolizumab-(GSTVAAPS)3-T mAb-dAb format (bispecific antibody, part only; not given: pascolizumab chains and linker, not shown: another chain or arm of the molecule; large carriers; small tags and cut ends)
# dAb: B2 dAb with A34Y
# B6: DT02-K-044-229 in Pascolizumab-(GSTVAAPS)3-T mAb-dAb format (bispecific antibody, part only; not given: pascolizumab chains and linker, not shown: another chain or arm of the molecule; small tags and cut ends)
# dAb: B2 dAb with A34S, H96A
# B7: DT02-K-044-238 in Pascolizumab-(GSTVAAPS)3-T mAb-dAb format (bispecific antibody, part only; not given: Pascolizumab chains and linker, not shown: another chain or arm of the molecule; small tags and cut ends)
# dAb: B2 dAb with A34S, H96M
# B8: DT02-K-044-240 in Pascolizumab-(GSTVAAPS)3-T mAb-dAb format (bispecific antibody, part only; not given: pascolizumab chains and linker, not shown: another chain or arm of the molecule; large carriers; small tags and cut ends)
# dAb: B2 dAb with A34S, H96P
# B9: DT02-K-044-239 in Pascolizumab-(GSTVAAPS)3-T mAb-dAb format (bispecific antibody, part only; not given: Pascolizumab chains and linker, not shown: another chain or arm of the molecule; large carriers; small tags and cut ends)
# dAb: B2 dAb with A34S, H96N
# B10: DT02-K-044-235 in Pascolizumab-(GSTVAAPS)3-T mAb-dAb format (bispecific antibody, part only; not given: pascolizumab chains and linker, not shown: another chain or arm of the molecule; small tags and cut ends)
# dAb: B2 dAb with A34S, H96I
# B11: DT02-K-044-232 in Pascolizumab-(GSTVAAPS)3-T mAb-dAb format (bispecific antibody, part only; not given: pascolizumab chains and linker, not shown: another chain or arm of the molecule; small tags and cut ends)
# dAb: B2 dAb with A34S, H96E
# B12: DT02-K-044-088 in Pascolizumab-(GSTVAAPS)3-T mAb-dAb format (bispecific antibody, part only; not given: pascolizumab chains and linker, not shown: another chain or arm of the molecule; large carriers; small tags and cut ends)
# dAb: B2 dAb with A34N
# B13: DT02-K-044-083 in Pascolizumab-(GSTVAAPS)3-T mAb-dAb format (bispecific antibody, part only; not given: pascolizumab heavy and light chains, not shown: another chain or arm of the molecule; small tags and cut ends)
# dAb: B2 dAb with A34H
# B14: DT02-K-044-247 in Pascolizumab-(GSTVAAPS)3-T mAb-dAb format (bispecific antibody, part only; not given: pascolizumab chains and linker, not shown: another chain or arm of the molecule; large carriers; small tags and cut ends)
# dAb: B2 dAb with A34S, H96Y
# B15: DT02-K-044-090 in Pascolizumab-(GSTVAAPS)3-T mAb-dAb format (bispecific antibody, part only; not given: pascolizumab chains and linker, not shown: another chain or arm of the molecule; large carriers; small tags and cut ends)
# dAb: B2 dAb with A34Q
# B16: DT02-K-044-230 in Pascolizumab-(GSTVAAPS)3-T mAb-dAb format (bispecific antibody, part only; not given: pascolizumab chains and linker, not shown: another chain or arm of the molecule; small tags and cut ends)
# dAb: B2 dAb with A34S, H96C
# B17: DT02-K-044-087 in Pascolizumab-(GSTVAAPS)3-T mAb-dAb format (bispecific antibody, part only; not given: pascolizumab chains and linker, not shown: another chain or arm of the molecule; large carriers; small tags and cut ends)
# dAb: B2 dAb with A34M
# Molecular target: human HGFδ5 (human) (UniProt P14210)
# Sequence (P14210 other isoform, or with tags, fused parts or gaps mutant): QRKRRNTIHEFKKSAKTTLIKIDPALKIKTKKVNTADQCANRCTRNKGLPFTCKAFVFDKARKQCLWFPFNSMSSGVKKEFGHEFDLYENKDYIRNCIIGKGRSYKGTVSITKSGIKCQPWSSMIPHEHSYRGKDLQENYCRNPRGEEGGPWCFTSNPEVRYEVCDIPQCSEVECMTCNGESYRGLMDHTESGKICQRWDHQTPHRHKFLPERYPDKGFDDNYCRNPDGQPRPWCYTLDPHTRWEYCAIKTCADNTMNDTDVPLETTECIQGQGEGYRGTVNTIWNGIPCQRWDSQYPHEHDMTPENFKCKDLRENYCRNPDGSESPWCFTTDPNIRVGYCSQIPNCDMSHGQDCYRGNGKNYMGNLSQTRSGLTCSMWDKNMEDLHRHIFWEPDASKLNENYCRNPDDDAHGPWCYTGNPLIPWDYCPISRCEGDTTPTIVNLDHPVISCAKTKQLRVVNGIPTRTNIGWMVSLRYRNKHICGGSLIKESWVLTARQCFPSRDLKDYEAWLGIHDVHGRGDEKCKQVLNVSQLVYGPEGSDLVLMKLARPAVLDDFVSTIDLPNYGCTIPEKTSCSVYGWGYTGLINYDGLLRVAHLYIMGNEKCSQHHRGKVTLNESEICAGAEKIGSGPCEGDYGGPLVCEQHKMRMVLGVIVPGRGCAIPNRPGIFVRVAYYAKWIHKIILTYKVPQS
# Test: Biacore SPR, antibody captured on anti-human IgG, HGF as analyte, 37 C, 1:1 model
Binder,Kd,koff,kon
B1,0.042 nM,1.78e-05 s⁻¹,423000 M⁻¹ s⁻¹

# Molecular target: recombinant human VEGF (hVEGF-165) (human) (UniProt P15692)
# Test: Proteon SPR estimate, mAb-dAb in transfection supernatant
row,Binder,Kd
1,B2,0.04 nM
2,B3,0.003 nM
3,B4,0.034 nM
4,B5,0.006 nM
5,B6,0.002 nM
6,B7,0.044 nM
7,B8,0.043 nM
8,B9,0.013 nM
9,B10,0.004 nM
10,B11,0.004 nM
11,B12,0.052 nM
12,B13,0.049 nM
13,B14,0.018 nM
14,B15,0.02 nM
15,B16,0.023 nM
16,B17,0.005 nM

# Molecular target: T1, Human HGFv1 (human, UniProt P14210 32-728)
# T1 construct: Biotinylated in the bridging ELISA; also called HGF (fl); HGF full length
# T1 sequence (P14210 32-728 limits assumed, form in doubt): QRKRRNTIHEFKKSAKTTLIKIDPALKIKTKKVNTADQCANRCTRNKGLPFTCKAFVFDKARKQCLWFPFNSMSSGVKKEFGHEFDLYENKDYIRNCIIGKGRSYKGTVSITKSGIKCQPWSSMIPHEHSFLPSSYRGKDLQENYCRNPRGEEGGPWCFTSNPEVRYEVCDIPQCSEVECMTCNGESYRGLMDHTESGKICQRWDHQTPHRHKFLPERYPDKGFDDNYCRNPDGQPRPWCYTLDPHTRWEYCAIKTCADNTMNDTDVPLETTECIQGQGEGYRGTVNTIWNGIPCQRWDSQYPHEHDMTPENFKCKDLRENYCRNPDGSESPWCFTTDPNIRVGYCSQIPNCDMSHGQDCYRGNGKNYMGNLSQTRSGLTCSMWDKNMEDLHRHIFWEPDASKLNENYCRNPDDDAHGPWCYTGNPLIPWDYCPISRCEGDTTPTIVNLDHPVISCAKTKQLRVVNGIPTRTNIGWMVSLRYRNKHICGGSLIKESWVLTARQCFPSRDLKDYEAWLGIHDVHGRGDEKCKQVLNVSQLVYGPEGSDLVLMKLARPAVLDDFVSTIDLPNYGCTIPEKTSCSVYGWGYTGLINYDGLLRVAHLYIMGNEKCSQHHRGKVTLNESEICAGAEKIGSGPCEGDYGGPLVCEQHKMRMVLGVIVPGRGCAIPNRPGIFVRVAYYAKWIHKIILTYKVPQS
# Test: Biacore SPR, antibody captured on anti-human IgG, HGF as analyte, 37 C, 1:1 model
Binder,Kd,koff,kon
B1,0.034 nM,1.49e-05 s⁻¹,434000 M⁻¹ s⁻¹
